Data: patent publication US7402303 (LABORATOIRES SERONO, dated 2008)

T1: recombinant CCR1 (UniProt P32246 1-355, limits assumed)
T1 construct: whole, on cells; The assay used membranes of CHO transfectants, not whole cells
T1 sequence (looked up): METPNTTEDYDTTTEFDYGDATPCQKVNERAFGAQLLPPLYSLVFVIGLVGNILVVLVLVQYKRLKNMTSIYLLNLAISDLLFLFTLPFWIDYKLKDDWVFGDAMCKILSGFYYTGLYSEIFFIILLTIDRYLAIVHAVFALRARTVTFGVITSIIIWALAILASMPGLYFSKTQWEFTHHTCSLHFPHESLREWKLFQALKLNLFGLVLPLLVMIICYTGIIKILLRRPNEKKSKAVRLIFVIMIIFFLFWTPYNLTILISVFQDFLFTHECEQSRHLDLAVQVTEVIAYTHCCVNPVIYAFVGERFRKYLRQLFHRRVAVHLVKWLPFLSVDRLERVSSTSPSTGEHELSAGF


Target: T1, recombinant CCR1
Assay: SPA equilibrium competition with [125I]-MIP-1α on CHO-CCR1 membranes
Method: Competitors were prepared by serial dilutions of the unlabelled chemokines in binding buffer to cover the range 10^-6-10^-12 M. The binding buffer used was 50 mM HEPES, pH 7.2 containing 1 mM CaCl_2, 5 mM MgCl_2, 0.15 M NaCl and 0.5% BSA. Wheatgerm SPA beads (Amersham) were solubilised in PBS to 50 mg/ml, and diluted in the binding buffer to a 10 mg/ml, and the final concentration in the assay was 0.25 mg/well. Membranes prepared from CHO cells expressing CCR1 or CCR5 were stored at −80° C. and diluted in the binding buffer to a 80 μg/ml. Equal volumes of membrane and beads stocks were mixed before performing the assay to reduce background. […] The plates were incubated at room temperature with agitation for 4 hours. Radioactivity was measured and data analysed as described for the heparin-binding assay.
MIP-1α for binding to recombinant CCR1 and CCR5 in membranes prepared from CHO stable transfectants. There was no significant difference in any of the single mutations on both receptors (results not shown).

fold reduction in affinity against WT RANTES [fold]	fold loss of affinity against WT RANTES [fold]	Binder
100	–	triple 40's RANTES mutant (R44A-K45A-R47A) (ligand, E. coli protein, leader cleaved; also called R44A-K45A-R47A RANTES; triple 40's mutant) SPYSSDTTPCCFAYIARPLPRAHIKEYFYTSGKCSNPAVVFVTAANAQVCANPEKKWVREYINSLEMS
–	3	triple 50's RANTES mutant (K55A-K56A-R59A) (ligand, E. coli protein, leader cleaved; also called triple 50's mutant; 50's mutant) SPYSSDTTPCCFAYIARPLPRAHIKEYFYTSGKCSNPAVVFVTRKNRQVCANPEAAWVAEYINSLEMS
